Experiment [1] deals with T1, human HER3 Extracellular Domain (ECD) (human, UniProt P21860 20-643).
T1 construct: human recombinant, 68 kDa; 'closed' conformation without ligand; also called Her3 ECD; Her-3 ECD
Briefly: SPR Biacore 4000, antibody captured, analyte 150 nM, 25 C. The protocol:
(§1) Prior to their application the hybridoma culture supernatants were diluted 1:5 in instrument buffer. The diluted mixtures were injected at a flow rate of 30 μl/min for 2 min. The antibody capture level (CL) in response units was monitored. Immediately thereafter the respective antigen was injected at a flow rate of 30 μl/min for 3 min association time. Thereafter, the antibody-antigen complex dissociation signal was recorded for 5 min. The sensor was regenerated by injecting a 10 mM glycine-HCl solution (pH 1.7) for 2 min at a flow rate of 30 μl/min. The recorded signal shortly before the end of the injection of the antigen was denoted as binding late (BL) in response units. The recorded signal shortly before the end of the recording of the dissociation is denoted as stability late (SL) in response units. The dissociation rate constants were determined calculated The antibody-antigen complex stability in minutes was calculated with the following formula: ln(2)/60*kd. The Molar Ratio was calculated with the formula: MW (antibody)/MW(antigen)*BL (antigen)/CL (antibody).
(§2) Binding Late (BL) represents the response units at the end of the analyte injection. The amount of antibody captured as a ligand on the sensor surface is measured as Capture Level (CL) in response units. Together with the information of the molecular weights of the tested analytes, the antibody and the analyte in solution, the Molar Ratio can be calculated. […] Then, the Molar Ratio is also an indicator for the valence mode of analyte binding. The maximum valence can be MR=2 for an antibody binding two analytes, one with each Fab valence.
(In general: SPR reads the build-up and loss of mass on a sensor chip optically.)

In a further experiment the target is T2, TtSlyD-FKBP-Her3.
T2 construct: N-terminal Met present or not; also called thermo SlyD-Her3; ttSlyD-Her3
T2 chain: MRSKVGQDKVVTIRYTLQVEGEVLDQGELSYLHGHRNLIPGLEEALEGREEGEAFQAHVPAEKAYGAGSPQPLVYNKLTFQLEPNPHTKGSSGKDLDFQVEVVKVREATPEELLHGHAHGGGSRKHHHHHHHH
Described as above. The protocol:
as §1, §2

The target in a further experiment is T3, TgSlyDΔIF.
T3 construct: scaffold without hairpin insert, negative control
T3 chain: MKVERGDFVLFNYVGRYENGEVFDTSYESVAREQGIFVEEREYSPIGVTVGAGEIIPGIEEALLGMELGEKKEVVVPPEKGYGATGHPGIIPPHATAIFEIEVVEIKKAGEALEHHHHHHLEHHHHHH
Briefly: ELISA, coated antigen 0.5 µg/ml, hybridoma supernatant. As to the method: (§3) For the ELISA the screening an antigen down format was used. […] Hybridoma Supernatant was added to the plates and incubated for 1 h at room temperature. Bound antibody was detected with a HRP-labeled F(ab′)₂ goat anti-mouse Fcγ (Dianova) and ABTS (Roche) was used as a HRP-substrate.
Background: ELISA stands for enzyme-linked immunosorbent assay.

The target in another experiment is T4, TtSlyDcas-Her3.
T4 chain: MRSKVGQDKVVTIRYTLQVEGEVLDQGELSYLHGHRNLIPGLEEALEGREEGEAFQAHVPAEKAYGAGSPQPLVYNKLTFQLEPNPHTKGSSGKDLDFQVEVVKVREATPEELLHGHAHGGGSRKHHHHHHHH
The experiment can be described thus: ELISA, coated antigen. The protocol:
as §3
(§4) As negative controls the scaffold proteins TtSlyDcas and TgSlyDΔIF were used.

The target in experiment [2] is T5, human HER2 Extracellular Domain (ECD) (human, UniProt P04626 23-652).
T5 construct: human recombinant, 69.6 kDa; also called Her2 ECD; HER2_ECD
The experiment can be described thus: ELISA, coated antigen. The protocol:
as §3, §4

Experiment [3] addresses T1, human HER3 Extracellular Domain (ECD). Briefly: ELISA, coated antigen. The protocol: as §3, §4
Another experiment addresses T6, TtSlyDcys-Her3.
T6 chain: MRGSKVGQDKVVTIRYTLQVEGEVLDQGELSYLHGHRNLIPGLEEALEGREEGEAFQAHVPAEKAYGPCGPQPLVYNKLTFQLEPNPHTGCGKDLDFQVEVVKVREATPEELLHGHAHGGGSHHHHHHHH
The experiment can be described thus: ELISA, coated antigen. As to the method: as §3, §4

Another experiment has as its target T7, TgSlyDser-Her3.
T7 chain: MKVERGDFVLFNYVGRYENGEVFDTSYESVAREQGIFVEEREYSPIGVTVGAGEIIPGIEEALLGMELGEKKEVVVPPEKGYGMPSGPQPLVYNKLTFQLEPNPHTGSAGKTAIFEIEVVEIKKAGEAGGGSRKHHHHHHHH
The experiment can be described thus: ELISA, coated antigen. The protocol:
as §3, §4

The target in another experiment is T8, TtSlyDcas.
T8 construct: scaffold without hairpin insert, negative control
T8 chain: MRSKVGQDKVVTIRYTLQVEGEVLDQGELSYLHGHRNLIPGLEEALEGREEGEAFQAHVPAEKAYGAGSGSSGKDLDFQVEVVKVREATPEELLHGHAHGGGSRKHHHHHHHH
Briefly: ELISA, coated antigen. As to the method: as §3, §4

For the next experiment, the target named is T9, TgSlyDcys-Her3.
T9 chain: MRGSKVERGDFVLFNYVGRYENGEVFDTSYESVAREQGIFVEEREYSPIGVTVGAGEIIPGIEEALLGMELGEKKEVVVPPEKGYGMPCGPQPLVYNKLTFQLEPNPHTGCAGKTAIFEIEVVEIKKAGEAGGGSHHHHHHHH
The experiment can be described thus: ELISA, coated antigen. As to the method:
as §3, §4

In experiment [4] the target is T10, human HER1 Extracellular Domain (ECD) (human, UniProt P00533 25-645).
T10 construct: also called Her1 ECD; HER1-ECD
The experiment can be described thus: ELISA, coated antigen. As to the method:
as §3, §4

In another experiment the target is T11, HER3 ECD-HRG complex (human, UniProt P21860 20-643).
T11 construct: HER3 ECD preincubated with a 3- to 6-fold molar excess of Heregulin ('open' conformation); biotinylated Her3-ECD in the ribosome display; also called HER3-ECD/HRG1β
Briefly: SPR Biacore 3000, 37 C.

Another experiment concerns the target T12, SBP-tagged HER3-ECD (human, UniProt P21860 20-643).
T12 construct: from cell culture supernatant, held on a streptavidin plate; not shown: SBP tag
Briefly: plate assay: SBP-tagged HER3-ECD on streptavidin plate, M-05-74 titrated in the presence of 10 nM Europium-labeled Heregulin-beta, time-resolved fluorescence; half-maximal promotion of HRG binding. The protocol: On the next day the wells were washed three times with washing buffer (PBS+0.05% Tween-20) and blocked with PBS containing 1% BSA for one hour. After another three washes with washing buffer, 40 μl antibody solution (in Delfia Binding Buffer) was added to each well as a 2× stock of the desired final concentrations (10⁻³ to 10³ nM, alternatively 10⁻⁴ to 10² nM). […] The plates were incubated on a shaker at room temperature for two hours. Following three washes with Delfia Wash Buffer, Delfia Enhancement Solution was added and incubated on a shaker for 15 minutes (light protected). Finally, the plates were measured in a Tecan Infinite F200 reader using a time-resolved fluorescence measurement protocol.

One molecule from patent US20170233490A1 (Hoffmann-La Roche, published 2017) can be followed below.

B1: anti-HER3/HER4 antibody M-05-74 (antibody, V domains shown)
VH: QVQLQQSGAELAKPGASVKMSCKTSGYTLTDYWIHWVKQRPGQGLEWIGYINPYTGYTESNQKFKDKATLTADKSSNTAYIQLSSLTSEDSAVYYCARPYYYGDYWGQGTTLTVSS
VL: QIVLTQSPAIMSASPGERVTITCSASSSVSYMHWFQQKPGTSPKLLIYSTSNLASGVPARFSGSGSGTSYSLTISRMEAEDAATYYCQQRSSYPFTFGSGTKLEIK
notes: murine monoclonal IgG from hybridoma (supernatant or purified), bivalent; also called M-074; M-5-74
For B1, the “MR (Molar Ratio)” value was 0.5 in experiment [1] and 1.1 with TtSlyD-FKBP-Her3. In addition, the results for the koff (in experiment [1]; with TtSlyD-FKBP-Her3; with HER3 ECD-HRG complex) were less than 1e-05 s⁻¹, 0.00012 s⁻¹ and 0.00057 s⁻¹, respectively. Also, the binding result with TgSlyDΔIF is listed as “no binding”. Besides, the ELISA signal turned out to be 3.13 in the experiment with TtSlyDcas-Her3; 0.02 in experiment [2]; 3.15 in experiment [3]; 3.15 in the experiment with TtSlyDcys-Her3; 3.16 with TgSlyDser-Her3; 0.023 with TtSlyDcas. The ELISA signal in the experiment with TgSlyDcys-Her3 is 3.16; in experiment [4], 0.018. Further, binding in the experiment with HER3 ECD-HRG complex was characterised by a dissociation constant (Kd) of 7 nM. Also, the MR with HER3 ECD-HRG complex amounted to 0.7. Also, the kon (usually the rate constant with which the complex forms) in the experiment with HER3 ECD-HRG complex amounted to 79000 M⁻¹ s⁻¹. Moreover, the t/2diss with HER3 ECD-HRG complex amounted to 20 min. In addition, the EC50 (read off the curve) (usually the concentration at which the effect is half-maximal) in the experiment with SBP-tagged HER3-ECD was roughly 0.3 nM.
